Laboratory results as given in the supplement of paper PMC10126150.
± gives the standard deviation of the averaged measurements.
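Further: ATP exposure 15 min at 22 °C before imaging.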

What follows are sequences tested on ATP (assay: switch fluorescence ratio, 500 uM ATP over buffer (Cy3 cluster intensity, sum of 5 cycles each) (fold (ratio)); higher = stronger signal-on switching upon ATP binding; sequences stand for … in TCGTCGGCAGCGTCAGATGTGTATAAGAGACAGTTTTTTTTTTTTTTTTTTTTTTTTT…TC). Conditions: aptamer strand: ATP DNA aptamer (quencher-CACCTGGGGGAGTATTGCGGAGGAAGG + anchor), 100 nM annealed; ATP concentration: 500 uM.
How it was run: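 Imaging in selection buffer was followed by imaging after 15 min with 500 uM ATP at 22 °C, for Cy3-labelled switching-strand clusters annealed to 100 nM quencher-labelled ATP aptamer on a modified Illumina MiSeq flow-cell. Five of these buffer/ATP cycles ran, separated by NaOH stripping and re-annealing. The fluorescence ratio per cluster is summed target-cycle over summed buffer-cycle Cy3 intensity, averaged per switch-domain sequence; clusters outside 100-1000 RFU were removed.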
ATCGGGTCGA was tested, and the switch fluorescence ratio was 1 ± 0.023.
ATCGGGTGTA gave a switch fluorescence ratio of 0.994 ± 0.013.
In the case of ATCGGTACTG, the switch fluorescence ratio is reported as 0.965 ± 0.027.
With ATCGGTTTCT the switch fluorescence ratio was 1.002 ± 0.0083.
ATCGGTTTGG gave a switch fluorescence ratio of 0.996 ± 0.0095.
ATCGTAAGGA gave a switch fluorescence ratio of 1.02 ± 0.046.
ATCGTACAGC showed a switch fluorescence ratio of 1.13 ± 0.017.
ATCGTCACGG was tested, and the switch fluorescence ratio was 1.022 ± 0.0012.
For ATCGTCGGAT, the switch fluorescence ratio was 0.982 ± 0.022.
Work on ATCGTCTCGC yielded a switch fluorescence ratio of 1.03 ± 0.05.
With ATCGTGGGGT the switch fluorescence ratio was 0.971 ± 0.016.
For ATCGTGTATG, the switch fluorescence ratio was 0.968 ± 0.028.
Work on ATCGTTAAAC yielded a switch fluorescence ratio of 1.01 ± 0.0099.
For ATCGTTAATT, the switch fluorescence ratio was 0.981 ± 0.041.
Work on ATCGTTACGA yielded a switch fluorescence ratio of 1.02 ± 0.026.
Work on ATCGTTCGCG yielded a switch fluorescence ratio of 0.996 ± 0.016.
ATCGTTCTTT showed a switch fluorescence ratio of 0.973 ± 0.027.
Sequence ATCGTTGCGT has a switch fluorescence ratio of 1.02 ± 0.031.
In the case of ATCTAAACTT, the switch fluorescence ratio is reported as 1.02 ± 0.035.
Work on ATCTAAATAA yielded a switch fluorescence ratio of 1.03 ± 0.019.
For ATCTAAGGTT, the switch fluorescence ratio was 1.01 ± 0.025.
ATCTAGCAAC showed a switch fluorescence ratio of 1.36 ± 0.049.
For ATCTAGGTAC, the switch fluorescence ratio was 1.06 ± 0.058.
In the case of ATCTATCGGA, the switch fluorescence ratio is reported as 1.0073 ± 0.00071.
Sequence ATCTATGCGA has a switch fluorescence ratio of 1.0635 ± 0.0004.
ATCTCAGGGC was tested, and the switch fluorescence ratio was 0.979 ± 0.014.
In the case of ATCTCATAGT, the switch fluorescence ratio is reported as 1 ± 0.025.
For ATCTCCGGTT, the switch fluorescence ratio was 1.1 ± 0.17.
In the case of ATCTCTTTCT, the switch fluorescence ratio is reported as 1.04 ± 0.019.
In the case of ATCTGACTCC, the switch fluorescence ratio is reported as 2.52 ± 0.19.
For ATCTGATGCG, the switch fluorescence ratio was 0.981 ± 0.1.
With ATCTGCCTGC the switch fluorescence ratio was 1.074 ± 0.009.
For ATCTGGGCGG, the switch fluorescence ratio was 0.997 ± 0.029.
ATCTGGGGAA gave a switch fluorescence ratio of 1.01 ± 0.045.
ATCTGGTAAT gave a switch fluorescence ratio of 1.005 ± 0.0031.
With ATCTGGTTTG the switch fluorescence ratio was 0.955 ± 0.023.
Sequence ATCTGTAAGG has a switch fluorescence ratio of 1.02 ± 0.043.
ATCTGTAGGG was tested, and the switch fluorescence ratio was 1.023 ± 0.0075.
With ATCTGTCAGT the switch fluorescence ratio was 0.9807 ± 0.0092.
Work on ATCTGTTAGG yielded a switch fluorescence ratio of 1.03 ± 0.041.
In the case of ATCTTAATTG, the switch fluorescence ratio is reported as 1.005 ± 0.0075.
ATCTTATGTT was tested, and the switch fluorescence ratio was 0.987 ± 0.025.
ATCTTTCCTG gave a switch fluorescence ratio of 1.053 ± 0.0087.
Work on ATCTTTTTCT yielded a switch fluorescence ratio of 1.03 ± 0.052.
Sequence ATGAAAATGG has a switch fluorescence ratio of 0.971 ± 0.019.
With ATGAAAGACG the switch fluorescence ratio was 1.04 ± 0.075.
Work on ATGAAAGTAT yielded a switch fluorescence ratio of 1.011 ± 0.0061.
ATGAACTAGG was tested, and the switch fluorescence ratio was 0.991 ± 0.022.
Sequence ATGAAGACGG has a switch fluorescence ratio of 1.03 ± 0.059.
Work on ATGAAGGATG yielded a switch fluorescence ratio of 1.01 ± 0.02.
In the case of ATGAAGGGAG, the switch fluorescence ratio is reported as 0.991 ± 0.061.
ATGAAGTGGA showed a switch fluorescence ratio of 0.9555 ± 0.0093.
Sequence ATGAAGTTTT has a switch fluorescence ratio of 1.02 ± 0.028.
In the case of ATGAATGAGT, the switch fluorescence ratio is reported as 0.985 ± 0.016.
In the case of ATGAATGCGG, the switch fluorescence ratio is reported as 0.99 ± 0.0094.
ATGAATTGGA showed a switch fluorescence ratio of 0.989 ± 0.017.
Work on ATGACAGAAG yielded a switch fluorescence ratio of 1.03 ± 0.05.
ATGACCTTCA showed a switch fluorescence ratio of 2.1 ± 0.078.
In the case of ATGACGGAGC, the switch fluorescence ratio is reported as 1.94 ± 0.31.
ATGACGGTGG was tested, and the switch fluorescence ratio was 0.94 ± 0.014.
Sequence ATGAGAAGAC has a switch fluorescence ratio of 1.02 ± 0.021.
In the case of ATGAGAGGAA, the switch fluorescence ratio is reported as 0.981 ± 0.028.
Work on ATGAGAGGAT yielded a switch fluorescence ratio of 0.9797 ± 0.0026.
With ATGAGATTCG the switch fluorescence ratio was 0.99 ± 0.026.
ATGAGCTGTG was tested, and the switch fluorescence ratio was 1.01 ± 0.056.
ATGAGGATGT was tested, and the switch fluorescence ratio was 1 ± 0.019.
With ATGAGGGATT the switch fluorescence ratio was 0.965 ± 0.011.
With ATGAGGGGTG the switch fluorescence ratio was 1.013 ± 0.0076.
In the case of ATGAGGTCGT, the switch fluorescence ratio is reported as 1.008 ± 0.007.
ATGAGTGGCT gave a switch fluorescence ratio of 0.999 ± 0.054.
ATGAGTTTTC showed a switch fluorescence ratio of 1.024 ± 0.0043.
With ATGATACCTT the switch fluorescence ratio was 1.17 ± 0.019.
ATGATAGGGG was tested, and the switch fluorescence ratio was 0.998 ± 0.023.
For ATGATATTAG, the switch fluorescence ratio was 1.004 ± 0.0066.
Sequence ATGATCAACG has a switch fluorescence ratio of 0.999 ± 0.015.
For ATGATCAGCT, the switch fluorescence ratio was 0.9824 ± 0.0077.
